T1: TMPRSS6 expressed in transfected HepG2 cells (HAMP-luciferase reporter assay) (UniProt Q8IU80 1-811, limits assumed)
T1 sequence (looked up): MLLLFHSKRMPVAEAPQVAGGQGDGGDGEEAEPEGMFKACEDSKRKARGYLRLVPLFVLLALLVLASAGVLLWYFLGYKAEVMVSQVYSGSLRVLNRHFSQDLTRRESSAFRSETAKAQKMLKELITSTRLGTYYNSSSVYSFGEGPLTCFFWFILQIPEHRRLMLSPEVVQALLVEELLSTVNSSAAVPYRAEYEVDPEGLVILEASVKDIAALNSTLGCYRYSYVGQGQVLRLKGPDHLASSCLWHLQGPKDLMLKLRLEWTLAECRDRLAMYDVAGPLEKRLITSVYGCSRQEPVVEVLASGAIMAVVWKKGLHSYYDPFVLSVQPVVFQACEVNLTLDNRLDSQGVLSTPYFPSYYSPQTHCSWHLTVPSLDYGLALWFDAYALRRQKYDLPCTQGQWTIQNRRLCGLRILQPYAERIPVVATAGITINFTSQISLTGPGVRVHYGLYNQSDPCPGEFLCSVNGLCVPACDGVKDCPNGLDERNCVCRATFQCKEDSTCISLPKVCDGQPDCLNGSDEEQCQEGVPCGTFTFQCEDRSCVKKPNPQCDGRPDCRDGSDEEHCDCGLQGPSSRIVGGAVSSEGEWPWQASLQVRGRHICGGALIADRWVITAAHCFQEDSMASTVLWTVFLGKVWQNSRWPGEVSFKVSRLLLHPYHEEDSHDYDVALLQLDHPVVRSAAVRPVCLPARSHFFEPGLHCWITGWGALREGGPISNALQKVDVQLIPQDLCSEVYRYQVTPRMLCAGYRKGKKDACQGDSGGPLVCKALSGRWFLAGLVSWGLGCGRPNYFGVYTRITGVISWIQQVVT

T2: cynomolgus monkey TMPRSS6 expressed on HEK293T cells (CynoTMPRSS6-(His)6) (cynomolgus monkey, UniProt Q8IU80 10-811 (human entry))
T2 chain: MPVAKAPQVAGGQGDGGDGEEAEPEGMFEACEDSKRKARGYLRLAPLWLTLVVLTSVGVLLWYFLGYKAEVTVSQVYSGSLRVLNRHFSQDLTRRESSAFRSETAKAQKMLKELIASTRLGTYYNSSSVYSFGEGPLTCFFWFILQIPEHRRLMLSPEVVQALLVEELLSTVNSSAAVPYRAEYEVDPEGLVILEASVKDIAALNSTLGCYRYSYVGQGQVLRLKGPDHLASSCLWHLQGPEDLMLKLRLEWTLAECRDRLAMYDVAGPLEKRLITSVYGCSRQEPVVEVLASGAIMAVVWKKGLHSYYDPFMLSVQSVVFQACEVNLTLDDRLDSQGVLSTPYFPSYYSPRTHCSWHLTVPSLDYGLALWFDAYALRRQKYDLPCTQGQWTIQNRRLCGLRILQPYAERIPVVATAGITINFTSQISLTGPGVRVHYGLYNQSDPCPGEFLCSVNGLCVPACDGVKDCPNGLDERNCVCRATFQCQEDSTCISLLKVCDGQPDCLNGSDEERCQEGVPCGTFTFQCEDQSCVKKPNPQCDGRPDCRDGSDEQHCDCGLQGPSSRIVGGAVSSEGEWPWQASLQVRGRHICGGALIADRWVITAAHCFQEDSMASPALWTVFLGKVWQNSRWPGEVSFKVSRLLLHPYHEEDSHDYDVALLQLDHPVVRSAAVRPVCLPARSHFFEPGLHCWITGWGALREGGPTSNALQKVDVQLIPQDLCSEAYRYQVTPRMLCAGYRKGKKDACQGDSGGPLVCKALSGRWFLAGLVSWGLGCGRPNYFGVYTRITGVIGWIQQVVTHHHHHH


Legend:
[1] = molecular target: T1, TMPRSS6 expressed in transfected HepG2 …; experiment: cell-based or functional assay
[2] = molecular target: T2, cynomolgus monkey TMPRSS6 expressed on …; experiment: cell surface ELISA on fixed HEK293T cells expressing cynomolgus monkey TMPRSS6
Experimental: HEK293T cells stably expressing mouse TMPRSS6 (generated by LakePharma Inc as described above, FIGS. 4J, 4L, 4N, 4P, 4R, 4T) or cynomolgus monkey (generated in house as described above, FIGS. 4K, 4M, 4O, 4Q, 4S, 4U) were fixed with methanol (100%), and washed with dPBS (Dulbecco’s phosphate-buffered saline, Corning Cellgro) before incubation with various concentrations of anti-TMPRSS6 antibodies and their humanized variants diluted in BSA medium (DMEM + 1% Pen/Strep + 10 mM HEPES + 1 mg/ml BSA (Sigma-Aldrich)). Purified mouse IgG (FIGS. 4J-4O) or Human IgG1 (FIGS. 4P-4U) was used as a control. After incubation, cells were washed with BSA medium and then incubated with goat anti-mouse (Invitrogen, FIGS. 4J-4O) or anti-human (Millipore, FIGS. 4P-4U) IgG conjugated with HRP as a 2° antibody. Finally, cells were washed with dPBS to remove unbound antibody and color developed with ELISA liquid substrate (Sigma-Aldrich), followed by stopping the reaction with addition of the same volume of ELISA liquid substrate of 1 M H₂SO₄. Bound antibody was measured by absorbance at OD₄₅₀ₙₘ.

| Binder | EC50, HAMP promoter activity (HAMP-luciferase reporter assay in HepG2 cells) [1] [µg/mL] | binding result [2] |
| --- | --- | --- |
| hzMWTx-003Var anti-TMPRSS6 antibody (antibody, human IgG1, kappa, L234A L235A, V domains shown, Humanized variant of MWTx-003, human IgG1/kappa) VH: QVQLVQSGAEVKKPGASVKVSCKASGFNIEDYYMHWVRQAPGQRLEWMGRIDPEDAETTYSPKFQGRVTIIPDTSANTAYMELSSLRSEDTAVYYCARSIYLDPMDYWGQGTLVTVSS VL: DIQMTQSPKSLSASVGDRVTITCRASQDVTTALAWYQQKPGQSPKLLIYWATTRHSGVPSRFSGSGSGTDFTLTISSLQPEDFATYYCQQHYSTPYTFGQGTKLEIKR | 0.3 | binds |
| hzMWTx-001Var anti-TMPRSS6 antibody (antibody, human IgG1, kappa, N297A, V domains shown, Humanized variant of MWTx-001, human IgG1/kappa) VH: EVQLVQSGAEVKKPGASVKVSCKASGYTFTSYWITWVRQAPGQRLEWIGNIYPGSGSTYYNEKFKSKATITRDTSSRTAYMELSSLRSEDTAVYYCAPYDADYAMDYWGQGTLVTVSS VL: DIQMTQSPSSLSASVGDRVTITCKASQDISNYLSWFQQKPGKAPKLLIYRANRLVEGVPSRFSGSGSGTDFTLTISSLQPEDFATYFCLQYDEFPLTFGGGTKVEIKR | 0.8 | binds |
| hzMWTx-002Var anti-TMPRSS6 antibody (antibody, human IgG1, kappa, N297A, V domains shown, Humanized variant of MWTx-002, human IgG1/kappa) VH: EVQLVQSGAEVKKPGASVKVSCKASGFNIKDYYIHWVRQATGQGLEWMGRIDPEDAESEYAPKFQGRVTITADTSTDTAYMELSSLRSEDTAVYYCTRGDSMMVTYFDYWGQGTLVTVSS VL: DIQMTQSPSSLSASVGDRVTITCKASQDVSTAVAWYQQKPGKAPKLLIYWAFTRHTGVPSRFSGSGSGTDYALTISSLQPEDFATYYCQQHYRSPWTFGGGTKVEIKR | 0.3 | binds |
| MWTx-001 anti-TMPRSS6 antibody (antibody, mouse IgG2a, kappa, V domains shown, Mouse monoclonal antibody from a hybridoma (ATCC PTA-126759)) VH: QVQLQQPGAELAKPGASVKMSCKASGYTFTSYWITWVKQRPGQDLEWIGNIYPGSGSTYYNEKFKSKATLTVDTSSRTAYMQLSSLTSADSAVYYCAPYDSDYAMDYWGQGTSVTVSS VL: DIKMTQSPSSMYASLGERVTITCKASQDINNYLSWFQQKPGKSPKTLIYRANRLVDGVPSRVSGSGSGQDYSLTISSLEYEDVGIYFCLQYDEFPLTFGAGTKLELKR | 3 | binds |
| MWTx-002 anti-TMPRSS6 antibody (antibody, mouse IgG2b, kappa, V domains shown, Mouse monoclonal antibody from a hybridoma (ATCC PTA-126760)) VH: EVQLQQSGAELVKPGASVKLSCTASGFNIKDYYIHWVKERTEQGLEWFGRIDPEDGESEYAPKFQGKATLTADTSSNTAYLQLSSLTSEDTAVYYCTRGDSMMVTYFDYWGQGTTLTVSS VL: DIVMTQSHKFMSTSVGDRVSITCKASQDVSTAVAWYQQKPGQSPKLLIYWAFTRHTGVPDRFTSTGSGTDYALTISSVQAEDLALYYCQQHYRSPWTFGGGTKLEIKR | 1 | binds |
| MWTx-003 anti-TMPRSS6 antibody (antibody, mouse IgG2b, kappa, V domains shown, Mouse monoclonal antibody from a hybridoma (ATCC PTA-126761); also called r4K12B (recombinantly expressed version, same HC and LC)) VH: EVQLQQSGAELVKPGASVKLSCTASGFNIEDYYIHWVKERTEQGLEWIGRIDPEDGETTYAPQFQGKATIIPDTSSNTAYMQLSSLTSEDAAVYYCARSIYLDPMDYWGQGTSVTVSS VL: DIVMTQSHKFMSTSVGDRVSITCKASQDVTTAVAWYQQKPGQSPKILIYWATTRHTGVPDRFTGSISGTTYILTISSVQAEDLALYYCQQHYSTPYTFGGGTKLEIKR | 2 |  |
